{
  "source": "paper PMC3159478",
  "about": "(Nucleic Acids Research, 2011)",
  "binders": {"B1": {"name": "fork 5'-tail-50 nt / 3'-tail-30 nt (mixed)", "DNA 1": "CACCTCTCCCTACGCTTCCCACCCACCCCGACCGGCATCTGCTATGGTACGCTGAGCGAGAGTAGC", "DNA 2": "CGATGAGAGCCGATGAGAGCCGATGAGAGCGAGTCGCATGGTATCGTCTAGCCGGTCGGGGTGGGTGGGAAGCGTAGGGAGAGGTG"}},
  "test_in_all_cases": "fluorescence anisotropy",
  "key": {"SsoMCM K323A": {"molecular_target": "T1, SsoMCM K323A (Sulfolobus solfataricus, UniProt Q9UXG1 1-686, K323A)", "T1 sequence": "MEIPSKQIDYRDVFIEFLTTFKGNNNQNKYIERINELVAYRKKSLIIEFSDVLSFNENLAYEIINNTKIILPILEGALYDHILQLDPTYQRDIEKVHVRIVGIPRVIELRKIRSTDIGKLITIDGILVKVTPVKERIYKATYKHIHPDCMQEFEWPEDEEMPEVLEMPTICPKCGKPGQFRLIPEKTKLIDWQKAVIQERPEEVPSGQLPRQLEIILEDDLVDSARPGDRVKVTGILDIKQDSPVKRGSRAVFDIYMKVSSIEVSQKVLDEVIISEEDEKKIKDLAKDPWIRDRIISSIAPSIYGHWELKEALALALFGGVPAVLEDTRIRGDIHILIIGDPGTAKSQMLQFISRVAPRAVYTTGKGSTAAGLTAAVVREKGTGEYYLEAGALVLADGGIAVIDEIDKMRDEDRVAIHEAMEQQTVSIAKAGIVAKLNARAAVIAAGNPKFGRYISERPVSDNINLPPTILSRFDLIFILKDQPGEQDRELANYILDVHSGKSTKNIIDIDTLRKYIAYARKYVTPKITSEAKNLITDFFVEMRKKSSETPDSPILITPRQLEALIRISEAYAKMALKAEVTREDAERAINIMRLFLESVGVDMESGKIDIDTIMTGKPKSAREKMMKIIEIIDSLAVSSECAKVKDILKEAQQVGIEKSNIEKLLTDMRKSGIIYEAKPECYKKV"}, "SsoMCM R440A": {"molecular_target": "T2, SsoMCM R440A (Sulfolobus solfataricus, UniProt Q9UXG1 1-686, R440A)", "T2 sequence": "T1 sequence with A323K, R440A"}, "SsoMCM K323A/R440A": {"molecular_target": "T3, SsoMCM K323A/R440A (Sulfolobus solfataricus, UniProt Q9UXG1 1-686, K323A;R440A)", "T3 sequence": "T1 sequence with R440A"}, "SsoMCM WT": {"molecular_target": "T4, SsoMCM WT (Sulfolobus solfataricus, UniProt Q9UXG1 1-686)", "T4 sequence": "T1 sequence with A323K"}},
  "note": "Residue numbers refer to the chain shown, from its start.",
  "data": [
    {"binder": "B1", "values": [
      {"measurement": "Kd", "setting": "SsoMCM K323A", "result": "93 ± 10", "unit": "nM"},
      {"measurement": "Kd", "setting": "SsoMCM R440A", "result": "92 ± 13", "unit": "nM"},
      {"measurement": "Kd", "setting": "SsoMCM K323A/R440A", "result": "90 ± 9", "unit": "nM"},
      {"measurement": "Kd", "setting": "SsoMCM WT", "result": "75 ± 13", "unit": "nM"}
    ]}
  ]
}
